Data from US20220168346A1 (published 2022).

B1: C*07:01/gp100479-487 TCR (TCR, V domains shown)
Valpha: DQQVKQNSPSLSVQEGRISILNCDYTNSMFDYFLWYKKYPAEGPTFLISISSIKDKNEDGRFTVFLNKSAKHLSLHIVPSQPGDSAVYFCAANSGNTPLVFGKGTRLSVIA
Vbeta: EPEVTQTPSHQVTQMGQEVILRCVPISNHLYFYWYRQILGQKVEFLVSFYNNEISEKSEIFDDQFSVERPDGSNFTLKIRSTKLEDSAMYFCASSLMGGGNTIYFGEGSWLTVV

How the values were obtained:
[1] = target: C*07:01/gp100479-487 multimer (human; mouse) (UniProt P01901); experiment: pHLA multimer staining of TILs before stimulation (day 0), flow cytometry
[2] = target: C*07:01/gp100479-487 multimer (human; mouse) (UniProt P01901); experiment: pHLA multimer staining of TILs after one peptide-specific stimulation with C*07:01-artificial APCs (day 14), flow cytometry
[3] = target: T1, gp100 peptide on HLA-C*07:01 (human); experiment: multimer staining
T1 peptide: RYGSFSVTL
Description: T cells (1×10⁵) were incubated for 30 minutes at 37° C. in the presence of 50 nM dasatinib (LC laboratories). The cells were then washed and incubated with 5-10 μg/ml of multimer for 30 minutes at room temperature, and R-phycoerythrin-conjugated AffiniPure Fab fragment goat anti-mouse IgG1 (Jackson ImmunoResearch Laboratories) was added for 15 minutes at 4° C. Next, the cells were washed three times and costained with an anti-CD8 mAb for 15 minutes at 4° C. Dead cells were finally discriminated using the LIVE/DEAD Fixable Dead Cell Stain kit.

Molecule | percentage of multimer+ cells in CD8+ T cells [1] [%] | percentage of multimer+ cells in CD8+ T cells [2] [%] | binding result [3]
C*07:01+ melanoma TILs | 0.14 | 1.2 | –
B1 | – | – | recognises
